In this series the test system is Escherichia coli TOP10. Briefly: shrunken log2 fold change of peptide-encoding DNA abundance (4.5 h post-induction vs induction); higher = less antimicrobial activity (less host growth inhibition). Particulars: time post-induction: 4.5 h; library: site-saturation at positions 5, 18, 19, 20.
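Note: peptides expressed intracellularly from a pBAD plasmid library in pooled LB shake-flask culture, induced with 0.3% L-arabinose, DNA abundance read by NGS, three biological replicates, DESeq2 with apeglm shrinkage.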

In the case of RRIRHRPPRLPRPRPRPISLPRP, the “shrunken log2 fold change” value was -0.234.

Take RRIRWRPPRLPRPRPRPHEHPRP: the “shrunken log2 fold change” value stood at 0.0185.

On to RRIRDRPPRLPRPRPRPLHFPRP, for which the “shrunken log2 fold change” value was -0.0881.

RRIRHRPPRLPRPRPRPIPWPRP: the “shrunken log2 fold change” value was 0.0217.

For the sequence RRIRERPPRLPRPRPRPLPWPRP, the “shrunken log2 fold change” value was determined as 0.0953.

With RRIRQRPPRLPRPRPRPPKSPRP, the “shrunken log2 fold change” value stood at 0.18.

As to RRIRNRPPRLPRPRPRPGEVPRP, the “shrunken log2 fold change” value was -0.121.

On to RRIRMRPPRLPRPRPRPHVEPRP, for which the “shrunken log2 fold change” value was 0.00707.

In the case of RRIRMRPPRLPRPRPRPRELPRP, the “shrunken log2 fold change” value is 1.54.

As for RRIRKRPPRLPRPRPRPGAEPRP, the “shrunken log2 fold change” value turned out to be 1.26.

For RRIRFRPPRLPRPRPRPKHCPRP, the “shrunken log2 fold change” value is -0.0918.

For RRIRYRPPRLPRPRPRPKLNPRP, the “shrunken log2 fold change” value is -0.689.

RRIRMRPPRLPRPRPRPRCSPRP: the “shrunken log2 fold change” value is 0.393.

In the case of RRIRHRPPRLPRPRPRPNDIPRP, the “shrunken log2 fold change” value was -0.0322.

RRIRNRPPRLPRPRPRPTRSPRP: the “shrunken log2 fold change” value was -0.177.

Regarding RRIRHRPPRLPRPRPRPYLTPRP, the “shrunken log2 fold change” value is -0.556.

Consider RRIRARPPRLPRPRPRPGHQPRP, for which the “shrunken log2 fold change” value worked out at 0.304.

On to RRIRLRPPRLPRPRPRPCICPRP, for which the “shrunken log2 fold change” value was -0.346.

As to RRIRSRPPRLPRPRPRPEGQPRP, the “shrunken log2 fold change” value was 0.193.

With RRIRDRPPRLPRPRPRPHWIPRP, the “shrunken log2 fold change” value was -0.693.

For the sequence RRIRERPPRLPRPRPRPHNPPRP, the “shrunken log2 fold change” value was -0.417.

On to RRIRTRPPRLPRPRPRPAVAPRP, for which the “shrunken log2 fold change” value was determined as 0.422.

For the sequence RRIRQRPPRLPRPRPRPKFVPRP, the “shrunken log2 fold change” value was -0.105.

Take RRIRGRPPRLPRPRPRPWYWPRP: the “shrunken log2 fold change” value was found to be 0.187.

Regarding RRIRTRPPRLPRPRPRPDEPPRP, the “shrunken log2 fold change” value is -0.105.

Take RRIRPRPPRLPRPRPRPQYKPRP: the “shrunken log2 fold change” value is -0.129.

With RRIRTRPPRLPRPRPRPPGQPRP, the “shrunken log2 fold change” value stood at 0.622.

With RRIRIRPPRLPRPRPRPYDWPRP, the “shrunken log2 fold change” value is -0.593.

RRIRIRPPRLPRPRPRPEQWPRP: the “shrunken log2 fold change” value is -0.0237.

Regarding RRIRKRPPRLPRPRPRPDYGPRP, the “shrunken log2 fold change” value is 0.111.

Take RRIRARPPRLPRPRPRPLPGPRP: the “shrunken log2 fold change” value is 0.467.

Take RRIRDRPPRLPRPRPRPPGEPRP: the “shrunken log2 fold change” value is -0.0136.

For the sequence RRIRGRPPRLPRPRPRPASCPRP, the “shrunken log2 fold change” value came to 1.06.

Take RRIRMRPPRLPRPRPRPPYVPRP: the “shrunken log2 fold change” value is -0.0137.

For RRIRYRPPRLPRPRPRPCDLPRP, the “shrunken log2 fold change” value was -0.618.

Regarding RRIRGRPPRLPRPRPRPRFYPRP, the “shrunken log2 fold change” value was found to be 0.189.

Regarding RRIRQRPPRLPRPRPRPTFNPRP, the “shrunken log2 fold change” value is -0.201.

With RRIRCRPPRLPRPRPRPQGCPRP, the “shrunken log2 fold change” value was -0.0977.

RRIRHRPPRLPRPRPRPCTWPRP: the “shrunken log2 fold change” value is -0.0924.

For the sequence RRIRARPPRLPRPRPRPGVFPRP, the “shrunken log2 fold change” value is 0.502.

Regarding RRIRDRPPRLPRPRPRPMMEPRP, the “shrunken log2 fold change” value was 0.0314.

As to RRIRERPPRLPRPRPRPNENPRP, the “shrunken log2 fold change” value is -0.111.

Take RRIRQRPPRLPRPRPRPEKGPRP: the “shrunken log2 fold change” value is -0.017.

Turning to RRIRRRPPRLPRPRPRPKGDPRP, the “shrunken log2 fold change” value was 0.3.

Turning to RRIRKRPPRLPRPRPRPAYFPRP, the “shrunken log2 fold change” value was -0.0128.

For RRIRQRPPRLPRPRPRPRMRPRP, the “shrunken log2 fold change” value is 0.583.

For RRIRTRPPRLPRPRPRPRYGPRP, the “shrunken log2 fold change” value was -0.284.

As to RRIRPRPPRLPRPRPRPRMFPRP, the “shrunken log2 fold change” value turned out to be 0.0598.

Turning to RRIRSRPPRLPRPRPRPTTEPRP, the “shrunken log2 fold change” value was 0.014.

Consider RRIRTRPPRLPRPRPRPAMFPRP, for which the “shrunken log2 fold change” value was -0.686.

Source of the values: the supplement of paper PMC9112550, “Optimization of the antimicrobial peptide Bac7 by deep mutational scanning” (BMC Biology, 2022).
